In US20120225028A1, “COMPOSITIONS AND METHODS FOR MOBILIZATION OF STEM CELLS” (priority 2011, published 2012):

B1: rhG-CSF: recombinant human granulocyte colony-stimulating factor (Amgen) (protein, UniProt P09919 31-207, looked up)
Granulocyte …: TPLGPASSLPQSFLLKCLEQVRKIQGDGAALQEKLVSECATYKLCHPEELVLLGHSLGIPWAPLSSCPSQALQLAGCLSQLHSGLFLYQGLLQALEGISPELGPTLDTLQLDVADFATTIWQQMEELGMAPALQPTQGAMPAFASAFQRRAGGVLVASHLQSFLEVSYRVLRHLAQP

Key:
GM-CFC = test: Hematopoietic progenitor colony forming assay of WBC from treated mice; assay type: in vivo; conditions: for Number of GM-CFC (n = 3): median colony number per 200,000 cells plated, methylcellulose culture, 10 days of incubation, triplicate cultures; for Type of colonies formed in cultures of WBC: methylcellulose colony assay
Protocol: WBC from treated mice were also plated in standard hematopoietic progenitor colony forming assays. Colony formation from cultures of 200,000 cells per 35 mm petri dishes were scored at 10 days of culture.
The median colony number pre 200,000 cells plated is presented from 3 triplicate cultures containing 1 ml of methycellulose plus rmIL-3, rmGM-CSF, rrSCF and rhG-CSF.

peripheral blood WBC [1] = test: Peripheral blood WBC counts of treated mice; assay type: in vivo; conditions: 7 day treatment
Protocol: G-CSF mobilization increases the circulating WBC count in mice and humans with typical counts approximately 25,000 to 30,000 WBC/μl. The effects of the combination of SP+G-CSF on peripheral WBC in treated mice was evaluated.
The different effects on peripheral WBC count of mobilization agents used were established.

mesenchymal stem cells = test: Mouse model of mobilization: MSC formation in culture of peripheral blood WBC from treated mice; assay type: in vivo; conditions: for Stromal cell formation in cultures of WBC: SP 10 μg/kg or rhG-CSF 250 ug/kg i.p. for 4 days, PB harvested on fifth day; for Stromal cell formation in cultures of WBC / MSC / adherent stromal cell formation after 5 to 7 days of culture: 35 mm wells; for MSC / adherent stromal cell formation after 5 to 7 days of culture / MSC foci after 10 days of culture: SP 10 μg/kg, i.p. 4 days; for MSC / adherent stromal cell formation after 5 to 7 days of culture: rhG-CSF 250 μg/kg or both; for MSC foci after 10 days of culture: rhG-CSF 250 μg/kg
Protocol: To evaluate the potential of different mobilization agents, a mouse model of mobilization was used. Groups of mice (n=5) were treated with cytokines or mobilization agents and peripheral blood harvested into heparin containing tubes. The blood was treated with ammonium chloride to lyse the red cells and the white cells plated in 6 well plates treated with gelatin and evaluated for MSC formation at various time points.
Mice were injected intraperitoneally with 250 ug/kg of rhG-CSF (Amgen Inc, Thousand Oaks, Calif.) or normal saline for 5 days and PB harvested on the fifth day. The white cells were plated in media from Stem Cell Technologies (Vancouver, Canada) for culture of mesenchymal stem cells with murine supplements.
Mice (groups of 5 mice per treatment arm) were injected intraperitoneally with 10 μg/kg of Substance P (Sigma-Aldrich, St Louis, Mo.) or with 250 ug/kg of rhG-CSF for 4 days and PB harvested on the fifth day. The white cells were plated in media from Stem Cell Technologies (Vancouver, Canada) for culture of mesenchymal stem cells with murine supplements.
Mice (groups of 5 mice per treatment arm) were injected intraperitoneally with 10 μg/kg of Substance P (Sigma-Aldrich, St Louis, Mo.), with 250 μg/kg of rhG-CSF, or the combination of 10 μg/kg SP plus 250 μg/kg rhG-CSF for 4 days and PB harvested on the fifth day. The white cells were plated in media from Stem Cell Technologies (Vancouver, Canada) for culture of mesenchymal stem cells with murine supplements.

MSCs or MSC precursors = test: Culture of rhG-CSF mobilized peripheral blood from normal donors under MSC conditions; assay type: in vivo; conditions: normal human donors mobilized with G-CSF, standard MSC culture
Protocol: Normal unmobilized PB and PB from normal donors mobilized with rhG-CSF was obtained and the potential of the MNCs to generate MSCs was evaluated. When placed in standard culture there was development of adherent cells that appeared like adipocyte cells and endothelial cells (FIG. 1).

peripheral blood WBC [2] = conditions: mice and humans, general statement; cited from earlier work

Molecule | Number of GM-CFC (n = 3) (GM-CFC) | Type of colonies formed in cultures of WBC (GM-CFC) | Effect on peripheral blood WBC levels (peripheral blood WBC [1]) | Stromal cell formation in cultures of WBC (mesenchymal stem cells) | MSC / adherent stromal cell formation after 5 to 7 days of culture (mesenchymal stem cells) | MSC foci after 10 days of culture (mesenchymal stem cells) | Blast like cells on cytospin slides of WBC (mesenchymal stem cells; WBC from SP treated mice) | MSC formation from mobilized peripheral blood cells (MSCs or MSC precursors) | MSC formation from mobilized peripheral blood cells (MSCs or MSC precursors; listed as G-CSF) | Typical circulating WBC count after mobilization (peripheral blood WBC [2]) | Adherent cells in cultures of WBC (mesenchymal stem cells; 250 ug/kg intraperitoneally for 5 days, PB harvested on the fifth day)
Substance P (RPKPQQFFGLM; printed: Arg Pro Lys Pro Gln Gln Phe Phe Gly Leu Met) [SP, Sigma-Aldrich, reference compound] | 5 | colonies containing both hematopoietic and MSC cells | no significant effect | generated adherent stromal cells after 5 to 7 days with several foci | a few adherent stromal cells | several MSC foci | increase in blast like cells |  |  |  | 
B1 | 26 | Typical hematopoietic colonies |  | no stromal cell formation evident | one area with MSC cells | one foci |  | no evidence of MSC formation | fail to generate mesenchymal stem cells | 25,000 to 30,000 WBC/μl | failed to proliferate and resembled endothelial cells not MSCs
